These results are taken from patent publication EP1605964B1 (GEORG-SPEYER-HAUS CHEMOTHERAPEUTISCHES FORSCHUNGSINSTITUT, dated 2004).

In this test the target is T1, Gal4 DNA binding domain alone (UniProt P04386 1-147).
T1 construct: Negative control bait in the yeast two-hybrid retransformation
Kind of test: yeast two-hybrid, retransformation of rescued plasmids.

T1 sequence (P04386 1-147 limits assumed): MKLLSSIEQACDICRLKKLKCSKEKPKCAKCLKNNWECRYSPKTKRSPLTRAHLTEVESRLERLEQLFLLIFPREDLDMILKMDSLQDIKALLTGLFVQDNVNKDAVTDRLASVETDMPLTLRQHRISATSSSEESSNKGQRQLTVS

B1: peptide aptamer KDI4 (SEQ ID NO:3), displayed in E. coli thioredoxin A (TrxA) (designed binder, not shown: large carriers)
chain: MSDKIIHLTDDSFDTDVLKADGAILVDFWAEWCGLSFQLSPLSLVHRWGTTVDVPCKMIAPILDEIADEYQGKLTVAKLNIDQNPGTAPKYGIRGIPTLLLFKNGEVAATKVGALSKGQLKEFLDANLA
notes: Built as the yeast two-hybrid prey; The construct used in the GST pulldown is not described
In the case of B1, the binding result was “no binding”.

B2: peptide aptamer KDI1 (SEQ ID NO:1), displayed in E. coli thioredoxin A (TrxA) (designed binder, not shown: large carriers)
chain: MSDKIIHLTDDSFDTDVLKADGAILVDFWAEWCGVFGVSWVVGFWCQMHRRLVCPCKMIAPILDEIADEYQGKLTVAKLNIDQNPGTAPKYGIRGIPTLLLFKNGEVAATKVGALSKGQLKEFLDANLA
notes: The construct used in the GST pulldown is not described
As for B2, the binding result is “no binding”.

B3: peptide aptamer KDI3 (SEQ ID NO:2), displayed in E. coli thioredoxin A (TrxA) (designed binder, not shown: large carriers)
chain: MSDKIIHLTDDSFDTDVLKADGAILVDFWAEWCGTFSPVVLLYRLFLATVLIWAPCKMIAPILDEIADEYQGKLTVAKLNIDQNPGTAPKYGIRGIPTLLLFKNGEVAATKVGALSKGQLKEFLDANLA
notes: as for B1
Regarding B3, the binding result is given as “no binding”.
